Data from patent US20250250301A1, “DE NOVO DESIGNED BINDERS TARGETING HUMAN EPCAM AND PDL1 RECEPTORS” (University of Washington, priority 2022, published 2025).
Where no end group is shown, it is not given here. AF594 = Alexa Fluor 594

Columns and labels:
PDL1+SKOV3 cells = assay: Cell binding assay with AF594-labeled binder, SKOV3 cells; assay type: cell-based, human
Method: FIG. 3. Cell binding assay. Binding of control antibodies are shown on the top and the binding for the designed binders are shown the bottom. […] These proteins bind their targets with low to mid nanomolar affinities based on octet data (see FIG. 2A-C). […] The rest of the designs with and without conjugated AF594 are well behaved, remain folded to 60-70° C., and completely refold upon cooling to room temperature. We show sequence, secondary structure information, and interface positions for EpcamBind1_cb4, EpcamBind2_cb10, and, PDL1Bind_cb6 in FIG. 5.

[1] = target: T1, PDL1 on PDL1+ SKOV3 cells (human, UniProt Q9NZQ7 19-290); assay: flow cytometry on PDL1 (+) cells (PDL1+ SKOV3), binder at 500 nM and 5 uM by the legend, fluorescence at 561 nm
T1 construct: whole, on cells

[2] = target: T2, human programmed death-ligand 1 (PDL1) receptor, extracellular portion (human, UniProt Q9NZQ7 19-238); assay: Octet (BLI), steady state analysis
T2 construct: extracellular domain; also called human PDL1

[3] = target: T2, human programmed death-ligand 1 (PDL1) …; assay: yeast surface display screen
[4] = target: T3, human epithelial cell adhesion molecule (EpCAM) receptor, extracellular portion (human, UniProt P16422 24-265); assay: Octet (BLI), kinetic fitting to association and dissociation; binder 100 nM to 1.56 nM
T3 construct: extracellular domain; also called human EpCAM receptor
T3 sequence (looked up): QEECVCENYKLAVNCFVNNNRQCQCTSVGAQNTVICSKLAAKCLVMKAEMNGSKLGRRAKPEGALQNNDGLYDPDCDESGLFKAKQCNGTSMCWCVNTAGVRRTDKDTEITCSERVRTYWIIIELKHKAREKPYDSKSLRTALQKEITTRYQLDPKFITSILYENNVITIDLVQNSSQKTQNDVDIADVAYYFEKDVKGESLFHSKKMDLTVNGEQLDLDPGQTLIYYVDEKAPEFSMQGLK
Method: FIG. 2A. Octet data for EpcamBind1_cb4. […] Concentrations span a range from 100 nM (top curve) to 1.56 nM (bottom curve) by two-fold dilution.
(§1) In one embodiment of any of the polypeptides of the disclosure, the polypeptide bind to their targets with nanomolar affinity as measured by octet. In the octet experiments, the target protein is immobilized onto an octet sensor and the kinetics of the binder binding to the target are measured over a range of binder concentrations to determine the binders affinity.

[5] = target: T3, human epithelial cell adhesion molecule …; assay: Octet (BLI), kinetic fitting to association and dissociation; binder 20 nM to 0.5 nM
Method: FIG. 4. Octet data for gs linked dimer of EpCAMBind1_cterm_cys. […] Concentrations from top curve to bottom curve are 20 nM, 10 nM, 5 nM, 2.5 nM, 1 nM and 0.5 nM.
as §1

human EpCAM receptor = target: T4, human EpCAM receptor (Homo sapiens, UniProt P16422); assay: Octet binding to immobilized human EpCAM
T4 sequence (P16422 24-265 limits assumed): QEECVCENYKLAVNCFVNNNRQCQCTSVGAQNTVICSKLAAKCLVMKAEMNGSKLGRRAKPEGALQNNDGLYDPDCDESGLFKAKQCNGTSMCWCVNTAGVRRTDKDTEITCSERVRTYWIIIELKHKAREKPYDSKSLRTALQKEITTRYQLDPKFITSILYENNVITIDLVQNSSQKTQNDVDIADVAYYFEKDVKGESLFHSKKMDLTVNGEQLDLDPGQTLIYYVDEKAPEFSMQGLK
Method: as §1

[6] = target: T3, human epithelial cell adhesion molecule …; assay: Octet (BLI), kinetic fitting to association and dissociation; binder 1000 nM to 15.6 nM
Method: FIG. 2B. Octet data for EpcamBind2_cb10. […] Concentrations span a range from 1000 nM (top curve) to 15.6 nM (bottom curve) by two-fold dilution.
as §1

[7] = target: T3, human epithelial cell adhesion molecule …; assay: yeast surface display screen

T2 sequence (Q9NZQ7 19-238): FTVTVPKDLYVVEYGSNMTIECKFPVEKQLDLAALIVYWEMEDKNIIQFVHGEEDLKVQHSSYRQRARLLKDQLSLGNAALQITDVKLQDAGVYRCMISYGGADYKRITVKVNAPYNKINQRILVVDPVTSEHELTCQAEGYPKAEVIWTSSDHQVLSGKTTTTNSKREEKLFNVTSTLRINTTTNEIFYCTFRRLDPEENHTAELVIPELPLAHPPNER
T1 sequence (Q9NZQ7 19-290): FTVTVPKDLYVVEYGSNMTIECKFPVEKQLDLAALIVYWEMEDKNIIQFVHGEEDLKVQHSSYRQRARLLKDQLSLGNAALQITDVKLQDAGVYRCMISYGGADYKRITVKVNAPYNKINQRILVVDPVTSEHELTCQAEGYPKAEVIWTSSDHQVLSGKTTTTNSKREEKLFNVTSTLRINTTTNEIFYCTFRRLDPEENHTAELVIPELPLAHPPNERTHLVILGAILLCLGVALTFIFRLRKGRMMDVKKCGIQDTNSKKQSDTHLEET

With “PDL1Bind1_E39C-AF594 (DEDTDRVFELLNEFNELREEGDPERAREVLEEAERLAKCLSDPTLESFVQAIKRVY)” the “binding to PDL1+SKOV3 cells” value (PDL1+SKOV3 cells; 500 nM and 5 uM) was “specifically binds” and the “nonspecific binding to PDL1− cells” value (PDL1+SKOV3 cells; 5 uM, comparable to control antibody) was “some minor nonspecific binding”.

B1: PDL1Bind1_E39C-AF594 (designed binder)
chain: DEDTDRVFELLNEFNELREEGDPERAREVLEEAERLAKC(AF594)LSDPTLESFVQAIKRVY
B1: binds [1].

B2: PDL1Bind_cb6 (designed binder)
chain: DEDTDRVFELLNEFNELREEGDPERAREVLEEAERLAKELSDPTLESFVQAIKRVY
notes: Optimized de novo miniprotein against human PDL1
B2 gave a Kd [2] of 2 nM.

B3: Pdl1Bind (designed binder)
chain: DEDTRRVMELLHEASELREEGDPERAREVLEEAERLAKELGDPSLERFVQAHKRVY
B3: binds [3].

B4: EpcamBind1_cb4 (designed binder)
chain: DEERLRELVEELVKELGLSERYKRTLERHLRTALEQGYDEEQIRMNLEQLAQQAREI
notes: Optimized de novo miniprotein (three helices) against human EpCAM
B4 gave a Kd [4] of 5.6 nM.

B5: gs linked dimer of EpCAMBind1_cterm_cys (designed binder)
chain: DEERLRELVEELVKELGLSERYKRTLERHLRTALEQGYDEEQIRMNLEQLAQQAREIGGSGGSDEERLRELVEELVKELGLSERYKRTLERHLRTALEQGYDEEQIRMNLEQLAQQAREI
notes: also called EpCAM1_dimer
For B5, the Kd [5] was less than 0.01 nM.

B6: gs linked dimer of EpCAMBind1_cterm_cys: gs linked fusion dimer of EpCAMBind1; possibly related to EpCAM1_dimer, SEQ ID NO:18 (protein)
chain: DEERLRELVEELVKELGLSERYKRTLERHLRTALEQGYDEEQIRMNLEQLAQQAREIGGSGGSDEERLRELVEELVKELGLSERYKRTLERHLRTALEQGYDEEQIRMNLEQLAQQAREI
B6 was tested, and the “binding affinity in words, EpCAM” value (human EpCAM receptor) was “low picomolar” and the “estimated Kd” value (human EpCAM receptor; kinetic fitting to association and dissociation, 20 nM to 0.5 nM) was less than 0.01 nM.

B7: EpcamBind2_cb10 (designed binder)
chain: DEVQHEVHELMVRIHSLVVRGNPEEARKLLEELEELAKKTNNPSYHIAVEALEHVIN
notes: Optimized de novo miniprotein against human EpCAM
Molecule B7 has a Kd [6] of 500 nM.

B8: EpcamBind2 (designed binder)
chain: DEVQHEVHELFVRIQELVVRGNPEEARKLLEELEELAKKYNDPSLHIAVEALERVIN
B8: binds [7].
